We go through 35 sequences from the supplement of paper PMC11865577.

Holding throughout (experiment): pull-down binding Z-score (relative to library population); higher = stronger binding
Common to all, as to conditions: RNA library: Library-2

The test system of data set [1] is TO-N3-2 (biotin conjugate). A digest of the protocol:
(§1)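 Streptavidin beads with 100 pmol of biotin-conjugated small molecule were incubated for 60 min at 25 °C with 1 μg of heat-folded Cy5- or Cy3-end-labelled RNA library in phosphate/NaCl/KCl buffer. Bound RNA was eluted in hot SDS after three washes and hybridised to a DNA barcode microarray at 55.5 °C for 20 h. Each binding score is a library-referenced Z-score, computed after beads-only subtraction and a trimmed mean of barcoded replicate probes.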

Another data set deals with TO-N3 (biotin conjugate). In short, it runs like this: as §1
The test system of data set [2] is TO-3-N3 (biotin conjugate). In short, it runs like this:
as §1

Data set [3] relates to TO-3-N3-2 (biotin conjugate). A digest of the protocol: as §1

Consider GACUUCAGUAACUCAGGUUCUGAUGUU, for which the “pull-down binding Z-score” value was -0.704 in data set [1], -0.829 in the data set with TO-N3 (biotin conjugate), -0.751 in data set [2] and -0.426 in data set [3].
As to “UGGUACUAUCUAUACAGAACUGGAACCA [SHAPE_invitro_SARS-CoV-2_Motif_233]”, the “pull-down binding Z-score” value in data set [1] was -0.456; in the data set with TO-N3 (biotin conjugate), -0.445; in data set [2], -0.352; in data set [3], -0.345.
Taken in the same sequence, the figures for UCCGUAAGUAGGAUACUUACCUG [U1snRNP5ss-21] were -0.337, -0.61, -0.611 and -0.419.
Taken in the same sequence, the figures for “GAAGAGGGAGCAAUUGUUGGCGAAAUUUCACCAUUGCCUUCUCUUC [IAV_invivo_NS1_NEP_8_Motif_10+IAV_invivo_NS1_NEP_8_Motif_10]” were -0.213, 0.0993, -0.045 and 0.262.
On to UCAAUUAUUAUAAGAAAGUUGA, for which the “pull-down binding Z-score” value in data set [1] is -0.425; in the data set on TO-N3 (biotin conjugate), 0.0296; in data set [2], 0.154; in data set [3], -0.0592.
As for “GGAGUUCAAAUUGCUUCC [IAV_invivo_NP_5_Motif_19+IAV_invivo_NP_5_Motif_19]”, the “pull-down binding Z-score” value in data set [1] is -0.604; with TO-N3 (biotin conjugate), -0.561; in data set [2] it was -0.502; in data set [3] it was -0.404.
Regarding GCGCUGCCAGAAACUGGCGAGCGC [bulge-G], the “pull-down binding Z-score” value in data set [1] was -0.578; in the data set on TO-N3 (biotin conjugate), -0.593; in data set [2], -0.426; in data set [3] it was -0.354.
Taken in the same sequence, the figures for “CAACGUAAGUUG [DMSMaPseq_invitro_SARS-CoV-2_Motif_215]” were -1.6, -0.732, -0.34 and -0.477.
“GGCAGCGAGCC [IAV_invivo_NP_5_Motif_25+IAV_invivo_NP_5_Motif_25]”: the “pull-down binding Z-score” value in data set [1] is -0.713; in the data set with TO-N3 (biotin conjugate), -1.01; in data set [2] it was -0.756; in data set [3] it was -0.633.
Taken in the same sequence, the figures for UGGGUUAUCUUCAACCUA were -0.937, -0.726, -0.534 and -0.424.
On the same counts, the results for “CAGACUUUGUGAAUGAGUUUUACGCAUAUUUGCGUAAACAUUUCUCAAUGAUGAUACUCUCUG” are -0.783, -0.747, -0.682 and -0.222.
Taken in the same sequence, the figures for “ACGACGACUACUAGCGUGCCUUUGUAAGCACAAGCUGAUGAGUACGAACUUAUGUACUCAUUCGUUUCGGAAGAGACAGGUACGUUAAUAGUUAAUAGCGU” were -0.217, -0.304, -0.319 and -0.333.
With GAGGUAAGUAUGAUACUUACCUG [U1snRNP5ss-8], the “pull-down binding Z-score” value in data set [1] is -1.02; in the data set on TO-N3 (biotin conjugate) it was -0.957; in data set [2], -0.664; in data set [3], -0.377.
Taken in the same sequence, the figures for “UCAAGACUAUUCAACCAAGGGUUGAAAAGAAAAAGCUUGA [SHAPE_invivo_SARS-CoV-2_Motif_22]” were -0.823, -0.551, -0.217 and -0.14.
Take “CCCAGAUGAAGGCACAGCUGGAGUGGAGUCCGCUGUUCUGAGGGGAUUCCUCAUUCUGGG [IAV_invivo_PB2_1_Motif_33+IAV_invivo_PB2_1_Motif_33]”: the “pull-down binding Z-score” value in data set [1] was 1.54; in the data set on TO-N3 (biotin conjugate), 0.671; in data set [2] it was -0.0325; in data set [3], 0.166.
Taken in the same sequence, the figures for “CACCAUCUGGUG [DMSMaPseq_invitro_SARS-CoV-2_Motif_188]” were -1.15, 0.0701, 0.319 and -0.158.
On to “AUUCUGAAGUUGUUCUUAAAAAGUUGAAGAAGUCUUUGAAU [DMSMaPseq_invitro_SARS-CoV-2_Motif_213]”, for which the “pull-down binding Z-score” value in data set [1] is -0.353; with TO-N3 (biotin conjugate), -1.03; in data set [2], -0.963; in data set [3], -0.324.
Taken in the same sequence, the figures for “UGGCCGCAAAUUGCACAAUUUGCCCCCA [SHAPE_invitro_SARS-CoV-2_Motif_532]” were -0.6, -0.363, -0.293 and -0.435.
As for “UGGAGGAAUACAAAUCCA [SHAPE_invitro_SARS-CoV-2_Motif_386]”, the “pull-down binding Z-score” value in data set [1] was -0.404; in the data set with TO-N3 (biotin conjugate), 0.109; in data set [2], 0.291; in data set [3], 0.00658.
Taken in the same sequence, the figures for UAUUUGCCUAUAGAUA were -0.821, -0.128, 0.0252 and -0.192.
“UCACACUCAAAGGCGGUGCACCAACAAAGGUUACUUUUGGUGAUGACACUGUGAUAGAAGUGCAAGGUUACAAGAGUGUGAAUAUCACUUUUGAACUUGAUGA [DMSMaPseq_invitro_SARS-CoV-2_Multi_10_ComplexLevel_1]”: the “pull-down binding Z-score” value in data set [1] was 0.257; with TO-N3 (biotin conjugate), 0.304; in data set [2], 0.0984; in data set [3] it was -0.184.
On the same counts, the results for GCACACUAGAACCAGAAUAUUUCAAUUCAGUGUGU are -1.18, -1.2, -0.957 and -0.413.
Consider “UGGGCACACUUUCUUAUGAACAAUUUAAGAAAGGUGUUCA [SHAPE_invivo_SARS-CoV-2_Motif_116]”, for which the “pull-down binding Z-score” value in data set [1] is -0.779; in the data set with TO-N3 (biotin conjugate), -0.52; in data set [2], -0.385; in data set [3], -0.384.
Turning to “UGCUUUGGUGUAAAGAUGGCCAUGUAGAAACAUUUUACCCAAAAUUACAAUCUAGUCAAGCGUGGCAACCGGGUGUUGCUAUGCCUAAUCUUUACAAAAUGCA”, the “pull-down binding Z-score” value in data set [1] was 0.252; in the data set with TO-N3 (biotin conjugate), 0.0858; in data set [2] it was -0.104; in data set [3] it was -0.00692.
Consider “GUCAGUGAAACACAGGGAACAGAGAAACUGAC [IAV_invivo_PB2_1_Motif_24+IAV_invivo_PB2_1_Motif_24]”, for which the “pull-down binding Z-score” value in data set [1] was 0.355; with TO-N3 (biotin conjugate), -0.399; in data set [2] it was -0.496; in data set [3] it was 0.282.
With GUCCUAUUACGGAU, the “pull-down binding Z-score” value in data set [1] is -1.55; in the data set on TO-N3 (biotin conjugate), -1.37; in data set [2] it was -0.9; in data set [3], -0.505.
Taken in the same sequence, the figures for GGUGGUAUUGUAGCUAUCGUAGUAACAUGCCUUGCC were 0.0259, 0.693, 0.56 and -0.0179.
With CCUUACCCAGAUCCAUCAAGAAUCCUAGGGGCCGG, the “pull-down binding Z-score” value in data set [1] is 0.308; in the data set with TO-N3 (biotin conjugate) it was 0.876; in data set [2], 0.842; in data set [3], 0.14.
Taken in the same sequence, the figures for GUUCGUGUUGUUUUAGAUUUCAUCUAAACGAAC were -0.397, -1.12, -0.845 and -0.562.
Taken in the same sequence, the figures for “GGACAAUUCACCUAAUUUAGCAUGGCCUCUUAUUGUAACAGCUUUAAGGGCCAAUUCUGCUGUCAAAUUACAGAAUAAUGAGCUUAGUCC” were -0.485, -0.563, -0.496 and -0.176.
As to “GAGUAUUAGGUUUGAAAACCCUUGCUACUC [SHAPE_invivo_SARS-CoV-2_Motif_136]”, the “pull-down binding Z-score” value was -0.731 in data set [1], -0.966 in the data set on TO-N3 (biotin conjugate), -0.732 in data set [2] and -0.359 in data set [3].
Regarding UGGGUAGAAUUCGAUCUGUCUAUCCA, the “pull-down binding Z-score” value was -0.327 in data set [1], -0.686 with TO-N3 (biotin conjugate), -0.51 in data set [2] and -0.21 in data set [3].
With GACUUGCUUUAGCACUCAAUUUGCUUUUGCUUGUC, the “pull-down binding Z-score” value is -1.08 in data set [1], -0.0156 in the data set on TO-N3 (biotin conjugate), 0.241 in data set [2] and -0.00573 in data set [3].
With “UAAAUAAGGGACACUUUGAUGGACAACAGGGUGAAGUACCAGUUUCUAUCAUUAAUAACACUGUUUACACAAAAGUUGAUGGUGUUGAUGUAGAAUUGUUUG”, the “pull-down binding Z-score” value in data set [1] was -0.111; with TO-N3 (biotin conjugate), -0.00789; in data set [2] it was -0.266; in data set [3] it was 0.0932.
On the same counts, the results for “GUCAAAGUGAC [SHAPE_invivo_SARS-CoV-2_Motif_385]” are -0.851, -0.434, -0.196 and -0.543.
